In one experiment the target is T1, Mcl-1, Q07820.
T1 chain: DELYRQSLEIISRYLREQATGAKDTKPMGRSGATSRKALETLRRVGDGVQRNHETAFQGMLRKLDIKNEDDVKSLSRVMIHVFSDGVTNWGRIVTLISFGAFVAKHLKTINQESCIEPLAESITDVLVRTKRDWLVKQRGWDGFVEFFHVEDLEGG
The experiment in a line: peptide SPOT array, c-Myc-tagged receptor at 1 uM or 100 nM, anti-c-Myc-Cy3.

A further experiment concerns the target Bcl-xL, Q07817. The experiment is described as above.

Bcl-xL, Q07817, sequence (Q07817 1-209): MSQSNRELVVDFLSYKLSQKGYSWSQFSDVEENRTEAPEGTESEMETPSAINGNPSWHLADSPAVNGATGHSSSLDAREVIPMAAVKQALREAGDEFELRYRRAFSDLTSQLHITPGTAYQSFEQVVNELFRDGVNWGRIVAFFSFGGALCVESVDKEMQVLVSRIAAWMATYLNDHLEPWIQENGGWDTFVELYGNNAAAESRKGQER

On to LGLGELAGLTVANELDSLTYDIANNK [STRN], for which the SPOT signal as a fraction of Bim BH3's signal on the same receptor and array stood at 0.01 in the experiment with Mcl-1, Q07820 and 0.02 with Bcl-xL, Q07817.

Turning to RRTSINVVRHDGIVGECNIQFALHPT, the SPOT signal as a fraction of Bim BH3's signal on the same receptor and array in the experiment with Mcl-1, Q07820 is 0.03; with Bcl-xL, Q07817, 0.03.

For RRTSINVVRHLGIVGECNIQFALHPT, the SPOT signal as a fraction of Bim BH3's signal on the same receptor and array with Mcl-1, Q07820 turned out to be 0.02; with Bcl-xL, Q07817, 0.03.

As to CGDLASLSIDIWTLGEEVDGRRLVVA, the SPOT signal as a fraction of Bim BH3's signal on the same receptor and array is 0.02 in the experiment with Mcl-1, Q07820 and 0.02 in the experiment with Bcl-xL, Q07817.

Regarding SPYVFNGGTILAIALEDFAIVASDTR [PSMB1], the SPOT signal as a fraction of Bim BH3's signal on the same receptor and array is 0.01 with Mcl-1, Q07820 and 0.02 in the experiment with Bcl-xL, Q07817.

QQMHHNAATAMAQRADMLRGLSPRES [NCOR2]: the SPOT signal as a fraction of Bim BH3's signal on the same receptor and array with Mcl-1, Q07820 was 0.01; with Bcl-xL, Q07817 it was 0.06.

For the molecule CALLGSTGERICLAGDSAGGNLCFTV, the SPOT signal as a fraction of Bim BH3's signal on the same receptor and array was 0.01 with Mcl-1, Q07820 and 0.01 with Bcl-xL, Q07817.

In the case of DHTDGVVACADGLIGDLCTAFGKDVL [KPNB1], the SPOT signal as a fraction of Bim BH3's signal on the same receptor and array is 0.01 in the experiment with Mcl-1, Q07820 and 0.02 in the experiment with Bcl-xL, Q07817.

In the case of NKTMTQLSSTDARCAKDILGFAVMFF [PKD2L1], the SPOT signal as a fraction of Bim BH3's signal on the same receptor and array with Mcl-1, Q07820 worked out at 0.02; in the experiment with Bcl-xL, Q07817, 0.03.

NKRHRPIGIGVQGLADAFILMRYPFE [RRM1]: the SPOT signal as a fraction of Bim BH3's signal on the same receptor and array with Mcl-1, Q07820 came out at 0.04; in the experiment with Bcl-xL, Q07817 it was 0.04.

Turning to HPRRESQVRQDAWIGDGVWVSIRLDS [MAPK8IP3], the SPOT signal as a fraction of Bim BH3's signal on the same receptor and array with Mcl-1, Q07820 came to 0.02; with Bcl-xL, Q07817, 0.02.

Take HPRKESQVRQLAWVLDGVWVSIRLDS [SPAG9]: the SPOT signal as a fraction of Bim BH3's signal on the same receptor and array in the experiment with Mcl-1, Q07820 amounted to 0.02; in the experiment with Bcl-xL, Q07817, 0.02.

As to LNAVNYISTVLADWADNVFFLQLQQA [RINT1], the SPOT signal as a fraction of Bim BH3's signal on the same receptor and array turned out to be 0.03 in the experiment with Mcl-1, Q07820 and 0.02 in the experiment with Bcl-xL, Q07817.

RLAHEHHCLRDKILGDCYYCVSGLPE [ADCY8]: the SPOT signal as a fraction of Bim BH3's signal on the same receptor and array turned out to be 0.01 with Mcl-1, Q07820 and 0.02 with Bcl-xL, Q07817.

For GLTWDPVGKYDASQADDRSLKVWRTL [HIRA], the SPOT signal as a fraction of Bim BH3's signal on the same receptor and array with Mcl-1, Q07820 was 0.23; in the experiment with Bcl-xL, Q07817 it was 0.17.

Take RFVVIDNCIALKKVASRLKKKRKKKN [TTC3]: in the experiment with Mcl-1, Q07820, the SPOT signal as a fraction of Bim BH3's signal on the same receptor and array came out at 0.17.

REAAVSASDILQESAIHSPGTVEKEA [C12orf43]: in the experiment with Mcl-1, Q07820, the SPOT signal as a fraction of Bim BH3's signal on the same receptor and array turned out to be 0.01.

Regarding SLIEYKAAVTLQRAALKFLAKYRKKK [IQCB1], in the experiment with Mcl-1, Q07820, the SPOT signal as a fraction of Bim BH3's signal on the same receptor and array turned out to be 0.24.

Regarding ELQAPATVQSDGLLGDRLCVGAAGGF, the SPOT signal as a fraction of Bim BH3's signal on the same receptor and array with Mcl-1, Q07820 turned out to be 0.01; with Bcl-xL, Q07817, 0.01.

With SAGVPVRGVELQAAAERFARCFGRTD, the SPOT signal as a fraction of Bim BH3's signal on the same receptor and array in the experiment with Mcl-1, Q07820 is 0.04; with Bcl-xL, Q07817, 0.12.

PPDAHVLGKALEAAGQDFSLDLRSTG [CIITA]: the SPOT signal as a fraction of Bim BH3's signal on the same receptor and array with Mcl-1, Q07820 was found to be 0.01; with Bcl-xL, Q07817, 0.02.

As for FRLAQMCGLHDVVHADELEELINYYQ [CLTC], the SPOT signal as a fraction of Bim BH3's signal on the same receptor and array with Mcl-1, Q07820 came to 0.02; with Bcl-xL, Q07817, 0.02.

Take RVSWNITGTVLASSLDDGCVRLWKAN [SEH1L]: the SPOT signal as a fraction of Bim BH3's signal on the same receptor and array with Mcl-1, Q07820 was determined as 0.08; in the experiment with Bcl-xL, Q07817 it was 0.18.

For the molecule HGTSSRIGSSDKSVGEVMAIGRTFEE, the SPOT signal as a fraction of Bim BH3's signal on the same receptor and array with Mcl-1, Q07820 was 0.02; with Bcl-xL, Q07817, 0.02.

On to SAGVPVRGVEDQAAAERFARCFGRTD, for which the SPOT signal as a fraction of Bim BH3's signal on the same receptor and array with Mcl-1, Q07820 came out at 0.02; in the experiment with Bcl-xL, Q07817 it was 0.02.

As for IVGGCVVGIAMARFLDFIRGMLKLIL [DIRC2], the SPOT signal as a fraction of Bim BH3's signal on the same receptor and array in the experiment with Mcl-1, Q07820 came to 0.18; with Bcl-xL, Q07817 it was 0.29.

Take CALLGSTGERICLALDSAGGNLCFTV: the SPOT signal as a fraction of Bim BH3's signal on the same receptor and array amounted to 0.01 in the experiment with Mcl-1, Q07820 and 0.01 with Bcl-xL, Q07817.

In the case of ELQAPATVQSLGLLLDRLCVGAAGGF, the SPOT signal as a fraction of Bim BH3's signal on the same receptor and array with Mcl-1, Q07820 worked out at 0.01; in the experiment with Bcl-xL, Q07817, 0.01.

For the molecule ALKKADVGFADGIAGTDVAKEASDII [ATP2B1], the SPOT signal as a fraction of Bim BH3's signal on the same receptor and array with Mcl-1, Q07820 came to 0.01; with Bcl-xL, Q07817, 0.01.

AALFLHAGCQLLTAGEDGKVQVWSGS [TEP1]: the SPOT signal as a fraction of Bim BH3's signal on the same receptor and array in the experiment with Mcl-1, Q07820 was 0.02; with Bcl-xL, Q07817, 0.02.

Turning to TLLTPGYSVIIEKLAEGLDIQLKSPV [KDM1B], the SPOT signal as a fraction of Bim BH3's signal on the same receptor and array with Mcl-1, Q07820 was 0.02.

For the molecule DSLAKFAGRKLKDCLEDLLVEISEVL [PCM1], the SPOT signal as a fraction of Bim BH3's signal on the same receptor and array in the experiment with Mcl-1, Q07820 stood at 0.02; in the experiment with Bcl-xL, Q07817, 0.02.

SEDHFRAAYLLKDVAKEAYQDVAFTQ [BNC1] yielded an SPOT signal as a fraction of Bim BH3's signal on the same receptor and array with Mcl-1, Q07820 of 0.02.

For LRCEMASTGEVACFGEGIHTAFLKAM, the SPOT signal as a fraction of Bim BH3's signal on the same receptor and array with Mcl-1, Q07820 was 0.03; with Bcl-xL, Q07817 it was 0.03.

For the molecule CGDLASLSIDIWTLLEEVDGRRLVVA, the SPOT signal as a fraction of Bim BH3's signal on the same receptor and array was determined as 0.03 with Mcl-1, Q07820 and 0.03 with Bcl-xL, Q07817.

RIEMWISILELNELGEYAAVELHQAK [KIF13A]: the SPOT signal as a fraction of Bim BH3's signal on the same receptor and array with Mcl-1, Q07820 was 0.02; with Bcl-xL, Q07817 it was 0.02.

Take RRTSINVVRHLGIVLECNIQFALHPT: the SPOT signal as a fraction of Bim BH3's signal on the same receptor and array was 0.1 in the experiment with Mcl-1, Q07820 and 0.14 with Bcl-xL, Q07817.

Turning to PSLSKELTSSDAGVGDVSFDSDSQFP [CRTC1], the SPOT signal as a fraction of Bim BH3's signal on the same receptor and array with Mcl-1, Q07820 is 0.01; in the experiment with Bcl-xL, Q07817 it was 0.01.

The values are drawn from paper PMC4072508, “Genome-Wide Prediction and Validation of Peptides That Bind Human Prosurvival Bcl-2 Proteins” (PLoS Computational Biology, 2014).
